This series in a line: yeast display, Sf9 membrane polyspecificity reagent, FACS + sequencing; frameworks hold sequencing errors. Put shortly:
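Nanobodies from a synthetic yeast display library (Saccharomyces cerevisiae BJ5465), induced 36–48 hours with galactose, were stained 1 hour at 4 °C with 10% biotinylated, detergent-solubilized Sf9 membrane reagent, enriched on streptavidin microbeads, then FACS-sorted. Anti-HA (expression) and streptavidin (reagent binding) fluorescence set low and high (top ~1%) gates. Polyreactivity labels come from the gate of origin. Genes were colony-PCR amplified, MiSeq 2 × 250 sequenced and filtered by CDR length.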
Take “QVQLVESVGGLVQAGGSLRLSCAASGITFDRNAMGWYRQAPGKERELVAAISSGGTYADSVKGRFTISRDNAKNTVYLQMNSLKPEDTAVYYCNADTDYIRWIYGYWGQGTQVTVSS”: the “polyreactivity (PSR sort gate)” value was “low polyreactivity”.
Turning to “QVQLVESVGGLVQAGGSLRLSCAASGITFSLYAAMGWYRQAPGKERELVAAISWRGGNTYYADSVKGRFTISRDNAKNTVYLQMNSLKPEDTAVYYCAARRTNLPVNFYYWGQGTQVTVSS”, the “polyreactivity (PSR sort gate)” value was “high polyreactivity”.
Take “QVQLVESVGGLVQAGGSLRLSCAASGITYYGYAMGWYRQAPGKERELVAAISKSGGSTHYADSVKGRFTISRDNAKNTVYLQMNSLKPEDTAVYYCNSRSLVFPITFWEYDYWGQGTQVTVSS”: the “polyreactivity (PSR sort gate)” value was “low polyreactivity”.
As to “QVQLVESVGGLVQAGGSLRLSCAASGLIFSRYAMGWYRQAPGKERELVAAITSGTSTYYADSVKGRFTISRDNAKNTVYLQMNSLKPEDTAVYYCARRYRGGYKYDYWGQGTQVTVSS”, the “polyreactivity (PSR sort gate)” value is “high polyreactivity”.
With “QVQLVESVGGLVQAGGSLRLSCAASGLIFVRYAMGWYRQAPGKERELVATITWSGGTTYADSVKGRFTISRDNAKNTVYLQMNSLKPEDTAVYYCAVEWPAWTDSDYPVGGHAFGYWGQGTQVTVSS” the entry was “low polyreactivity”; with “QVQLVESVGGLVQAGGSLRLSCAASGLTCYGKTMGWYRQAPGKDRELVAAISFDGGNTYADSVKGRFTISRDNAKNTVYLQMNSLKPEDTAVYYDYWGQGNQVTVSS”, “low polyreactivity”.
With “QVQLVESVGGLVQAGGSLRLSCAASGNTFSLYAMGWYSQAPGKERELVAAITWITGSTDYADSVKGRFTISRDNAKNTVYLQMNSLKPEDTAVYYCAADGDFSWFYSYETGWIEYDYCGQGTQVTVSS”, the “polyreactivity (PSR sort gate)” value was “low polyreactivity”.
With “QVQLVESVGGLVQAGGSLRLSCAASGRIFRSYTMGWYREATGKERELVAGIRASGGSTYYADSVKGRFTISRDNAKNTVYLQMNSVKPEDTAVYYCAARRYTTFGIRDYWGQGTQVTVSS” the entry was “high polyreactivity”.
On to “QVQLVESVGGLVQAGGSLRLSCAASGRIFTLYAMGWYRQAPGKERELVAAISWSGGSTYYADSVKGRFTISRDNAKNTVYLQMNSLKPEDTAVYYCAATWYRYYSIPRYDSWGQATQVTVSS”, for which the “polyreactivity (PSR sort gate)” value is “high polyreactivity”.
With “QVQLVESVGGLVQAGGSLRLSCAASGRIFYPYAMGWYRQAPGKERELVAAITRGGITTYADSVYGRFTISRDNAKNTVYLQMNSLKPEDTAVYYCNAVRWYGRMDYWGQGTQVTVSS” the entry was “low polyreactivity”.
With “QVQLVESVGGLVQAGGSLRLSCAASGRIYVYVMGWYIQSPGKERELVAAITSGGSTYYADSVKGRFTISRDNAKNTDYLQMNSLKPEDTAVYYCAADVNGGYDYYYFVSIVYYWGQGTQVTVSS” the entry was “low polyreactivity”.
Consider “QVQLVESVGGLVQAGGSLRLSCAASGRTCGYKAMGWYRQAPGKERQLVAAISRGGSTNYADSVKGRFTISRDNAKNSVYLQMNSLKPEDTAVYYCAKTIRAYRPSRTAYRLDYWGQGTQVTVSS”, for which the “polyreactivity (PSR sort gate)” value was “high polyreactivity”.
“QVQLVESVGGLVQAGGSLRLSCAASGRTFRAYSMGSYRQAPGKETELVAAIRSGTSTNYADSVKGRFTISRDNAKNTVYLQMNSLKPEDTAVYYCAARWWYYIGGRDYWGHGTQVTVSS”: the “polyreactivity (PSR sort gate)” value was “high polyreactivity”.
For the sequence “QVQLVESVGGLVQAGGSLRLSCAASGRTFRNNAMGWYRQAPGTEREFVAVISNTGGSTYYADSVKGRFTISRDNAKNTVYLQLNSLKPEDTAVYYCAVRPRYSQYYYWGQGTQVTVSS”, the “polyreactivity (PSR sort gate)” value is given as “high polyreactivity”.
On to “QVQLVESVGGLVQAGGSLRLSCAASGRTFVYNAMGWYRQAPGKEREFVGAISDGGGDTYYADSVKGRFTISRDNAKNTVFLQMNSLKPEVTAVYYCNVEWQQPGYAFDYCGQGTQVTVSS”, for which the “polyreactivity (PSR sort gate)” value is listed as “low polyreactivity”.
For the sequence “QVQLVESVGGLVQAGGSLRLSCAASGRTFYFYAMGWYRQAPGKERELVASITSSGGNTYYADSVKGRFTISRDNAKNTVYLQMNSLKPEDTAVYYCAARWFPWLQWKRYVYWGQGTQVTVSS”, the “polyreactivity (PSR sort gate)” value was “low polyreactivity”.
For “QVQLVESVGGLVQAGGSLRLSCAASGRTFYTNAMGWYRQAPGKERELVAAITRGTSTSYADSVKGRFTISRDNAKNTVYLQMNSLKPEDTAVYYCAARGTQYSPSKSWFYYWGQGTQVTVSS” the value was “high polyreactivity”.
With “QVQLVESVGGLVQAGGSLRLSCAASGRTLLYNAMGWYRQAPGKERELVAAISRGGSTYYADSVNGRFTISRDNAKNTVYLQMNSLKPEDTAVYYCATGTWRYRYDYWGQGTQVTVSS” the entry was “low polyreactivity”; with “QVQLVESVGGLVQAGGSLRLSCAASGSIFGFYAMGWYRQAPGKERELDAVISSDASKNYADSVKGRFTISRDNAKNTVYLQMKSLKPEDTAVYYCNAVAYGYHFFSYYSVDYWGQGTQVTVSS”, “low polyreactivity”; with “QVQLVESVGGLVQAGGSLRLSCAASGSIFKYYAMGWYRQEPGKERELVAAITIGGNTNYADSVKGRFTISRDNAKNTVYLQMNSLKPEDTAVYYCATGGYYSAIVYGGYDYWGQGTQVSVSS”, “low polyreactivity”.
With “QVQLVESVGGLVQAGGSLRLSCAASGSIFRLYALGWSRQAPGKERELVAAIRYSTGRTYSADSVKGRFTISRDNAKNTVYLQMNSLKPEDTAVYYCNARSWYIRGSQEYYYWGQGTQVTVSS” the entry was “high polyreactivity”; with “QVQLVESVGGLVQAGGSLRLSCAASGSIFVTNAMGWYRQAPGKERELVAAISSGGNTNYADSVKGRFTISRDNAKNTVYLQMNSRKPEDTAVYYCAKDPDKVDYVDMDYWGQGTQVTVSS”, “low polyreactivity”; with “QVQLVESVGGLVQAGGSLRLSCAASGSIFWPNAMGWYRQAPGKERELVATISGSGGSTYYADSVKGRFTISRDNAKNTVYLQMNSLKPEDTAVYYCAADYRYGRYDYWGQGTQVTVSS”, “high polyreactivity”.
In the case of “QVQLVESVGGLVQAGGSLRLSCAASGSIFWWYAMGLARQAPGKERELVAAISTRDGNTYYADSVKGRFTISRDNANNTVYLQMNSLKPEDTAVYYCAADYFRYYPYDYWGQGTQVTVSS”, the “polyreactivity (PSR sort gate)” value is “low polyreactivity”.
For “QVQLVESVGGLVQAGGSLRLSCAASGSIFYNNAMGWYRQAPGKDRELVAAIRSTGTRTYYADSVKGRFTISRDHAKNTVYLQMNSLKAEDTAVYYCAVGDYGLWSYDYWGQGTQLTVSS” the value was “low polyreactivity”.
With “QVQLVESVGGLVQAGGSLRLSCAASGSIRSYAIGWYRQAPGKERELVAAITRSGGSTYYADSVKGRFTISRDNAKNTVYLQMISLKPEDTAVYYCAARYTYSYPLFGSWGQGTQVTVSS” the entry was “high polyreactivity”; with “QVQLVESVGGLVQAGGSLRLSCAASGSTFAANAMGWYRQAPGKASELVAAITSVGTTYYADSVKGRFTISRDNGKNTVYLQMNSLKPEDTEVYYCNAEYGVWYDYLVVPYDYWGQGTQVTVSS”, “low polyreactivity”.
As to “QVQLVESVGGLVQAGGSLRLSCAASGSTFAGYAMGWYRQAPGKERELVATITYSGGSTYYADSVKGRFTISRDNAKNTVYLQMNSLKPEDTEVYYCAKKASYWWGYEYWGQGTQVTVSS”, the “polyreactivity (PSR sort gate)” value is listed as “low polyreactivity”.
With “QVQLVESVGGLVQAGGSLRLSCAASGSTFRYNAMGWYRQAPGKERELVATISSDGITYYADSVNGRFTISRDNAKNTVYLQMNRLKPEDTAVYYCAASYAGGFDYWGQGTQVTVSS”, the “polyreactivity (PSR sort gate)” value is reported as “high polyreactivity”.
In the case of “QVQLVESVGGLVQAGGSLRLSCAASGSTFVGNAMGWYRQAPGKERELVAAITGGGGSTYYADSVKGRFTISRDNAKNTVYLQMNSLKPEDTAVYYCAREYTYYPRWVGYDAYGEDYWGQGTQVTVSS”, the “polyreactivity (PSR sort gate)” value was “low polyreactivity”.
“QVQLVESVGGLVQAGGSLRLSCAASGSTFYENTMGWYRQAPGKERELVAAISFRGGSRYYADSVKGRFTISRDNAKNTVYLQMNSLKPEDTAVYYCNADDSPVPSIRFDYWGEGTQVTVSS”: the “polyreactivity (PSR sort gate)” value is “low polyreactivity”.
For “QVQLVESVGGLVQAGGSLRLSCAASGSTFYFNAMGWYRQAPGKERELVAAIDWSGGSTYYADSVKGRFTISRDNAKNTVYLQMNSLKPEDTAVYYCAAPYHYYGNTVGYADYDYWGQGTQVTVSS” the value was “low polyreactivity”; for “QVQLVESVGGLVQAGGSLRLSCAASGSTIRYYAIAWYRQAPGKERELVAAITSSGGRTYYADSVKGRFTISRDYAKNTVYLQMNSLKPEDTAVYYCAAYAYYHTGDDYWGQGTQVTVSS”, “high polyreactivity”; for “QVQLVESVGGLVQAGGSLRLSCAASGSTLYQYAMGWYRQAPGKERELVAAITKSGGRTYYADSVKGRFTISRDNAKNTVYLQMNSLKPEDTAVYYCNVVRGSYSSGGDYWGQGTQVTVSS”, “high polyreactivity”.
With “QVQLVESVGGLVQAGGSLRLSCAASGYIFGHYTMRWYRQAPGKERELVAGISSGGITYYADSVKGRFTISRDNAKNTVYLQMNSLKPEDTAVYYCAVGTRVKYDYWGQGTQVTVSS” the entry was “high polyreactivity”; with “QVQLVESVGGLVQAGGSLRLSCAASGYTFPDYAMGWYRQAPGKEREFVATISWSGTSTYYADSVKGRFTISRDNAKNTVYLQMNSLKPEDTAVDYCNASAYYPPSSSRYDYWGQGTQVTVSS”, “low polyreactivity”; with “QVQLVESVGGLVQAGGSLRLSCAASRIFRGYAMGRYRQAPGKERELVAAIRRGGSTNYADSVKGRFTISRDNAKNSVYFQMNSLKPEDTEVYYCAADFYYDRDVDYWGQGTQVTVSS”, “high polyreactivity”.
For “QVQLVESVGGLVQAGGSLRLSCAAYGLTFRYYAMGWYRQSPGKESELDAAISSGGSTNYADSVKGRFTISRDNAKNTVYLQMNSLKPEDTAVYYCAAVSNSKWGRWGRAKYNYWGQGTQVTVSS” the value was “high polyreactivity”; for “QVQLVESVGGLVQAGGSLRLSCAAYGYTFYSNAMGWYRQAPGKDRELVASIRSRGRSTYYADSVKGRFTISRDNAKNTVYLQMNSLKPEDTAVYYCAPLPNNPAVYAYDYWGEGTQVTVSS”, “low polyreactivity”.
Regarding “QVQLVESVGGLVQAGGSLRLSCASSGFTFRFYVMGWSRQAPGKERELVAAITASGGTTYYADSVKGRFTISRDNAKNTVYLQMNSLKPEDTAVYYCNARYYYLYGYDYWGQGTQVTVSS”, the “polyreactivity (PSR sort gate)” value was “high polyreactivity”.
With “QVQLVESVGGLVQAGGSLRLSCASSGRIFAWYGMGSYRQAPGKEMELVAAINSGGRTYYEDSVKGRFTISRVNAKNTVYLQMNSLKPEDTAVYYCAAKLAAYGWRFHYGYWGQGTQVTVSS” the entry was “high polyreactivity”.

Source of the values: the nanobody polyreactivity screen of Harvey et al. (2022).
